Laboratory results published in patent publication US10208121B2, “Anti-Axl antagonistic antibodies” (BERGEN TEKNOLOGIOVERFORING AS, priority 2014, dated 2019).

Key:
[1] = molecular target: T1, human Tyro3 (rhTyro3/Dtk-Fc chimera) (Homo sapiens, UniProt Q06418); experiment: Biacore binding analysis on immobilized human Tyro3; details: 10 μg/mL, 25° C.
T1 construct: Soluble recombinant antigens corresponding to the extracellular domains of members of the human TAM receptor family; purchased R&D Systems 859-DK
T1 sequence (Q06418 41-429 limits assumed): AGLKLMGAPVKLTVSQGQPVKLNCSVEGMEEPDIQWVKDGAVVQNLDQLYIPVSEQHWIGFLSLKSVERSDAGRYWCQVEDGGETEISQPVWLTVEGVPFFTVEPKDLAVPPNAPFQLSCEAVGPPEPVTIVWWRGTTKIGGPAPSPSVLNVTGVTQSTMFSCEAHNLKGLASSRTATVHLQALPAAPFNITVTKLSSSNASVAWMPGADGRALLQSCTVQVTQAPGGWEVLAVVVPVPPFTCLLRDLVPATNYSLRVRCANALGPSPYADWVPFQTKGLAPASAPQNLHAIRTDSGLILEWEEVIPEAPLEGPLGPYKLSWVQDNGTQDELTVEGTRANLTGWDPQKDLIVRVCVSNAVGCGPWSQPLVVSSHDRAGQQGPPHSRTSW
Protocol: (§1) All binding experiments were performed using Biacore 3000 instrument (GE Healthcare) at 25° C. Soluble recombinant antigens corresponding to the extracellular domains of members of the human TAM receptor family, Axl (rhAxl-Fc chimera; R&D Systems, Cat. no. 154-AL), Mer (rhMer-Fc chimera; R&D Systems, Cat. no. 891-MR) and Tyro3 (rhTyro3/Dtk-Fc chimera; R&D Systems, Cat. no. 859-DK) were immobilized on the surface of CM5 sensor chip using amine coupling at the surface density of 393.0, 303.6 and 364.0 resonance units (RU), respectively. The Biacore run was performed in an automatic mode using Binding analysis wizard. Samples containing either MAb 10C9 or MAb 10G5 at concentration 10 μg/mL in HBS-EP buffer (GE Healthcare) were injected over the surfaces with immobilized antigens at flow rate of 30 μL/min for 3 min (association) followed by 5 min dissociation.
The binding experiments were performed using Biacore 3000 instrument (GE Healthcare) at 25° C. The soluble recombinant antigens corresponding to human Axl (rhAxl-Fc chimera; R&D Systems, Cat. no. 154-AL), mouse Axl (rmAxl-Fc chimera; R&D Systems, R&D Systems; Cat. no. 854-AX) and human Tyro3 (rhTyro3/Dtk-Fc chimera; R&D Systems, Cat. no. 859-DK) were immobilized on the surface of CM5 sensor chip using amine coupling at the surface density of 1,308.0, 2,115.9 and 1,429.0 RU, respectively. The Biacore runs were performed in an automatic mode using Binding analysis wizard.
The sample containing either MAb 10C9, MAb 10G5 or recombinant mouse (rm) Axl-ligand Gas6 (R&D Systems, Cat. no. 986-GS/CF) at concentration 10 μg/mL in HBS-EP buffer (GE Healthcare) was injected over the surfaces with immobilized antigens at flow rate of 30 μL/min for 3 min (association) followed by 5 min dissociation.

[2] = tested on: Axl^+ cells; experiment: Flow cytometry binding of hybridoma antibody clones to Axl+ cells; format: cell-based; details: hybridoma clone selection
Protocol: For flow cytometry, the adherent cells in culture were washed with PBS, detached by trypsin (0.25%) treatment for 1 min and hitting culture dish for full detachment. Trypsin was quenched by adding into the tissue flask the complete medium followed by washing the cells with PBS. During the washing steps, the cells were collected by centrifugation at 200 g for 5 min. The antibody was diluted for total concentration in PBS containing 0.02% bovine serum albumin (BSA).
Cell staining was performed using 200 μL of cell suspension comprising 10^5 cells for 20 min at room temperature. After two washing steps with PBS/0.02% BSA, the cells were resuspended in 200 μL incubated with an APC-conjugated donkey anti-mouse IgG (H+L) secondary antibody (Jackson Laboratories, Cat. no. 715-136-150) at concentration 2 μg/mL for 20 min at room temperature. The stained cells were washed twice with PBS/0.02% BSA and kept on ice before analysis using a BD LSR Fortessa cell analyzer (BD Biosciences).

[3] = molecular target: T2, Mer (rhMer-Fc chimera) (Homo sapiens, UniProt Q12866); experiment: Biacore binding analysis on immobilized human Mer; details: 10 μg/mL, 25° C.
T2 construct: Soluble recombinant antigens corresponding to the extracellular domains of members of the human TAM receptor family; purchased R&D Systems 891-MR
T2 sequence (Q12866 21-505 limits assumed): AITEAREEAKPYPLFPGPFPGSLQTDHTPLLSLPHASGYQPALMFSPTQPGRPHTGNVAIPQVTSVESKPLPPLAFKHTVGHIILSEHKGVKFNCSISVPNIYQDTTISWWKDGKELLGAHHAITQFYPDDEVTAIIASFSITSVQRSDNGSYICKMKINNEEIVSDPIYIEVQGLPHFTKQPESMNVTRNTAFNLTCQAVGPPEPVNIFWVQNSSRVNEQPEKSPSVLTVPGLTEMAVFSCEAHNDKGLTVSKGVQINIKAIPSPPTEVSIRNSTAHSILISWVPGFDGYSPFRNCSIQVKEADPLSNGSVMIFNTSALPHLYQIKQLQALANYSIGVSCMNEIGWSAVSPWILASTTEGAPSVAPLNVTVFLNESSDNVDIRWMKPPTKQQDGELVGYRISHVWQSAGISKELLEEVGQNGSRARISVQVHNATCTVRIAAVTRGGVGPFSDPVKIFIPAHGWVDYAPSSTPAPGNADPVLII
Protocol: as §1

[4] = tested on: Axl-positive breast cancer cell line MDA-MB-231; experiment: Flow cytometry binding to Axl-positive MDA-MB-231 cells; format: cell-based, human; details: different antibody concentrations, MFI
Protocol: Different concentrations of mouse and chimeric antibodies were tested in flow cytometry for binding to triple-negative breast cancer cell line MDA-MB-231. The bound mouse and chimeric antibodies were detected with APC-conjugated donkey F(ab′)2 fragments specific for either mouse IgG (H+L), 1:500 dilution, or human IgG (H+L), 1:300 dilution, respectively (both from Jackson ImmunoResearch). The cell staining was measured using Accuri C6 flow cytometer (BD Biosciences). MFI, geometric mean fluorescence intensity.
The purified chimeric antibodies (>95% purity) were analysed for binding to Axl-positive breast cancer cell line MDA-MB-231 in flow cytometry. For comparison, the parental mouse MAbs 10C9 and 10G5 were used. For flow cytometry, the adherent cells in culture were washed with PBS, detached by treatment with trypsin (0.25%) for 1 min and hitting culture dish for full detachment. Trypsin was quenched by adding into the tissue flask the complete medium followed by washing the cells with PBS. During the washing steps, the cells were collected by centrifugation at 200 g for 5 min. The antibody was diluted for total concentration in PBS containing 0.02% bovine serum albumin (BSA). Cell staining was performed using 200 μL of cell suspension comprising 10^5 cells for 20 min at room temperature. The cell-bound antibodies were detected with APC-conjugated donkey anti-human or anti-mouse, respectively, IgG (H+L) F(ab′)2 fragments (Jackson ImmunoResearch). After two washing steps with PBS/0.02% BSA, the cells were resuspended in 200 μL and kept on ice before analysis on Accuri C6 flow cytometer (BD Biosciences).

B1: 10C9: mouse anti-Axl monoclonal antibody from hybridoma UT-10C9-B9, IgG2b; VH SEQ ID NO: 3, VL SEQ ID NO: 4 (antibody, listed as Mus musculus, V domains shown)
VH: QVQLQQPGPELVKPGASVKISCKTSDYNFTRYYIHWVKQRPGQGLEWIGWIYPGTGDSKYNEKFKGRATLTADTSSSTAYMQLSSQTSEDSAVYFCARNGNYWYFDVWGAGTAVTVSS
VL: DIVMTQAAPSGPVTPGESVSISCRSSKSLLHSNGNTYLYWFLQRPGQSPQLLIYRMSNLASGVPDRFSGSGSGTAFTLRISRVEAEDVGIYYCMQHREYPFTFGGGTKLEIK
binding to human Tyro3 [1]: no binding | binding to human Tyro3 ([1]; listed as 1009): no significant binding | binding to Axl^+ cells in flow cytometry [2]: specific binding | binding to human Mer [3]: no binding | binding to human Mer ([3]; listed as 1009): no significant binding | binding to MDA-MB-231 cells in flow cytometry [4]: Dose-dependent binding

B2: 10G5: mouse anti-Axl monoclonal antibody from hybridoma WR-10G5-E5, IgG1; VH SEQ ID NO: 21, VL SEQ ID NO: 22 (antibody, listed as Mus musculus, V domains shown)
VH: QVQLQQSGAELVRPGASVKLSCKASGYSFTDFYINWVRQRPGQGLEWIARIFPGGDNTYYNEKFKGKATLTAEESSSTAYIQLSSLTSEDSAVYFCARRGLYYAMDYWGQGISVTVSS
VL: DVLMTQTPLSLPVSLGDQASISCRSSQSLVHSNGIPYLHWYLQKPGQSPKLLIYRVSNRFSGVPDRFSGSGSGTDFTLKISRVEAEDLGVYFCSQGTHVPPTFGGGTKLEIK
binding to human Tyro3 [1]: no significant binding | binding to Axl^+ cells in flow cytometry [2]: specific binding | binding to human Mer [3]: no significant binding

B3: c10G5: chimeric (mouse variable/human constant) IgG1 variant of antibody 10G5 (antibody)
heavy: QVQLQQSGAELVRPGASVKLSCKASGYSFTDFYINWVRQRPGQGLEWIARIFPGGDNTYYNEKFKGKATLTAEESSSTAYIQLSSLTSEDSAVYFCARRGLYYAMDYWGQGISVTVSS
light: DVLMTQTPLSLPVSLGDQASISCRSSQSLVHSNGIPYLHWYLQKPGQSPKLLIYRVSNRFSGVPDRFSGSGSGTDFTLKISRVEAEDLGVYFCSQGTHVPPTFGGGTKLEIK
modifications: left off: a dimerising Fc or GST
notes: chimeric (mouse variable/human constant) IgG1 variant of antibody 10G5
binding to MDA-MB-231 cells in flow cytometry [4]: Dose-dependent binding
